{"source": "the RNAGym collection of RNA variant scans (doi:10.7554/elife.80360)", "parents": {"B1": {"name": "HDV Ribozyme (parent)", "chain": "GGCCGGCAUGGUCCCAGCCUCCUCGCUGGCGCCGGCUGGGCAACAUUCCGAGGGGACCGUCCCCUCGGUAAUGGCGAAUGGGACCCA"}}}
{"variants_of": "B1", "assay": "self-cleavage, relative activity (ratio to wild type); higher = more cleavage; co-transcriptional"}
{"variant": "GGCCGGCAUGGUCCCAGCCUCCUCGCUGGCGCCGGCUGGGCAACAUUCCGAGGGGACCGUCCCCUCGGUAAUGGCGAAUAGGACGCA", "self-cleavage": 0.312}
{"variant": "GGCCGGCAUGGUCCCAGCCUCCUCGCUGUCGCCGGCUGGGCAACAUUCCGAGGGGACCGUCCCCUCGGUAAUGCCGAAUGGGACCCA", "self-cleavage": 0.137}
{"variant": "GGCCGGCAUGGUCCCAGCCUCCUCGCUGGCGCCGGCUGGGCAACAUUCCGAGGGGACCGUCCCCUCGGUAAUGGCGAAUGGGACUCG", "self-cleavage": 0.963}
{"variant": "GGCCGGCAUGGUCCCAGCCUCCUCGCUGGCGCCGGCUGGGCAACAUUCCGAGGGGACCAUUCCCUCGGUAAUGGCGAAUGGGACCCA", "self-cleavage": 1.11}
{"variant": "GGCCGGCAUGGUCCCAGCCUCCUCGCUGGCGCCCGCUGGGCAACAUUCCGAGGGGACCGUCCCCUCGGUAAUGGCGUAUGGGACCCA", "self-cleavage": 0.125}
{"variant": "GGCCGGCAUGGUCCCAGCCUCCUCGCUGGCGCCGGCUGGGCAACAUUACGAGGGGACCUUCCCCUCGGUAAUGGCGAAUGGGACCCA", "self-cleavage": 1.11}
{"variant": "GGCCGGCAUGGUCCCAGCCUCCUCGCUGGCGCCGGCUGGGCAACAUUCCGAGGGGACCGUCCCCUCGGUACUGGCGAAUGGAACCCA", "self-cleavage": 0.111}
{"variant": "GGCCGGCAUGGUCCCAGCCUCCUCGCUGGCGCCGGCUGGGCAACAUGCCGAGGGGACCGUCCCCUCGGUAAUGGCGAAUGUGACCCA", "self-cleavage": 0.214}
{"variant": "GGCCGGCAUGGUCCCAGCCUCCUCGCUGGCGCCGGCUGGGCAACAUUCCGAGGGGACUGUCCCCUCGGUUAUGGCGAAUGGGACCCA", "self-cleavage": 1.29}
{"variant": "GGCCGGCAUGGUCCCAGCCUCCUCGCUGGCGCCGGCUGGGCAACGUUCCGAGGGGACCGUCCCCUCGGUAAGGGCGAAUGGGACCCA", "self-cleavage": 0.68}
{"variant": "GGCCGGCAUGGUACCAGCCUCCUCGCUGGCGCCGGCUGGGCAACAUUCCGAGGGGACCGGCCCCUCGGUAAUGGCGAAUGGGACCCA", "self-cleavage": 0.136}
{"variant": "GGCCGGCAUGGUCCCAGCCUCCUCGCUGGCGCCGGCUGGGCAAAAUUCCGAGAGGACCGUCCCCUCGGUAAUGGCGAAUGGGACCCA", "self-cleavage": 0.831}
{"variant": "GGCCGGCAUGGUCCCAGCCUCCUCGCUGGCGCCGGCUGGGCAACAUUUCGAGGGGACCGUCCCCUCGGUAAUGGCGAAUGCGACCCA", "self-cleavage": 0.381}
{"variant": "GGCCGGCAUGGUCCCAGCCUCCUCGCUGGCGCCGCCUGGCCAACAUUCCGAGGGGACCGUCCCCUCGGUAAUGGCGAAUGGGACCCA", "self-cleavage": 0.185}
{"variant": "GGCCGGCAUGGUCCCAGCCUCCUCGCUGGCGCCGGCUGGGCAACAUUCCGAGGGGACCGUCCCCUCGGUAAUGGCGUAUGUGACCCA", "self-cleavage": 0.237}
{"variant": "GGCCGGCAUGGUCCCAGCCUCCUCGCUGGCGCCGGCUGGGCAACAUUCCGAGGGGACCGUCCCCUCUGUUAUGGCGAAUGGGACCCA", "self-cleavage": 0.812}
{"variant": "GGCCGGCAUGGUCCCAGCCUCCUCGCUGGCGCCGGCUGGGCAACAUUCCGAGGGAACCGUCCCCUCGGUAAUGGCGAAUGGGAGCCA", "self-cleavage": 0.635}
{"variant": "GGCCGGCAUGGUCCCAGCCUCCUCGCUGGCGCCUGCUGGGCAACAUUCCGCGGGGACCGUCCCCUCGGUAAUGGCGAAUGGGACCCA", "self-cleavage": 0.0707}
{"variant": "GGCCGGCAUGGUCCCAGCCUCCUCGCUGGCGCCGGCUGGGCAACAUUCCGAGGGGACCGUCCCCUCGGUAAUAGCGAAUGGGAUCCA", "self-cleavage": 0.665}
{"variant": "GGCCGGCAUGGUCCCAGCCUCCUCGCUGGCGCCUGCUGGGCAACAUUCCGAGGGGACCGUCCCCCCGGUAAUGGCGAAUGGGACCCA", "self-cleavage": 0.197}
{"variant": "GGCCGCCAUGGUGCCAGCCUCCUCGCUGGCGCCGGCUGGGCAACAUUCCGAGGGGACCGUCCCCUCGGUAAUGGCGAAUGGGACCCA", "self-cleavage": 0.151}
{"variant": "GGCCGGCAUGGUCCCAGCCUCCUCGCUGGCGCCGGCUGGGCAACAUUCCGAGGGGAACGUCCACUCGGUAAUGGCGAAUGGGACCCA", "self-cleavage": 1.25}
{"variant": "GGCCGUCAUGGUGCCAGCCUCCUCGCUGGCGCCGGCUGGGCAACAUUCCGAGGGGACCGUCCCCUCGGUAAUGGCGAAUGGGACCCA", "self-cleavage": 0}
{"variant": "GGCCGGCGUGGUCCCAGCCUCCUCGCUGGCGCCGGCUGGGCAUCAUUCCGAGGGGACCGUCCCCUCGGUAAUGGCGAAUGGGACCCA", "self-cleavage": 0.519}
{"variant": "GGCCGGCAUGGUCACAGCCUCCUCGCUGGCGCCGGCUGGGCAACAUUCCGAGGGGACCGUCCCCUCGGUAAUGGCGACUGGGACCCA", "self-cleavage": 0.158}
{"variant": "GGCCGGCAUGGUCCCAGCCUCCUCGCUGGCGCCGGCUGGGCAACAUUCCGAGGGGACCGUCCCGUCGGUAAUGGCGAAUGUGACCCA", "self-cleavage": 0.312}
{"variant": "GGCCGGCAUUGUCCCAGCCUCCUCGCUGGCGCCGGCUGGGCAACAUUCCGAGGGGACCGUCCCCUCUGUAAUGGCGAAUGGGACCCA", "self-cleavage": 0.819}
{"variant": "GGCCGGCAUGGUCCCAGCCUCCACGCUGGCGCCCGCUGGGCAACAUUCCGAGGGGACCGUCCCCUCGGUAAUGGCGAAUGGGACCCA", "self-cleavage": 0.339}
{"variant": "GGCCGGCAUGGUCCCAGCCUCCUCGCUGGCGCCGGCCGGGCAACAUUCCGAGGGGACCGUCCCCUCGGGAAUGGCGAAUGGGACCCA", "self-cleavage": 1.19}
{"variant": "GGCCGGCAAGGUCCCAGCCUCCUCGCUGGCGCCGGCUGGGCAACAUUCCGAGGGGACCGUCCCCUCGGUCAUGGCGAAUGGGACCCA", "self-cleavage": 0.767}
{"variant": "GGCAGGCAUGGUCCCAGCCUCCUCGCUGGCGCCGGCUGGGCAACAUUCCGAGGGGACCGUCCCCUCGGUAAUGGCGAAUGGGCCCCA", "self-cleavage": 0.232}
{"variant": "GGCCGGCAUGGUCCCAGCCUCCUCGCUGGCGCCUGCUGGGCAACAUUCCGAGGGGACCGCCCCCUCGGUAAUGGCGAAUGGGACCCA", "self-cleavage": 0.175}
